Laboratory results published in patent US20010039016, “Use of expression profiling for identifying molecular markers useful for diagnosis of metastatic cancer” (published 2001).

Legend:
[1] = target: T1, Cdx2 (Mus musculus, UniProt P43241 P43241:1-311); experiment: EMSA; supershifted by anti-Cdx2, 10 mM Tris pH 7.5, 50 mM NaCl, 2.5 mM MgCl2, room temp; settings: tags: pRc/CMV-Cdx2, TNT Quick-coupled (Promega); label: 32P 5'-end
T1 sequence: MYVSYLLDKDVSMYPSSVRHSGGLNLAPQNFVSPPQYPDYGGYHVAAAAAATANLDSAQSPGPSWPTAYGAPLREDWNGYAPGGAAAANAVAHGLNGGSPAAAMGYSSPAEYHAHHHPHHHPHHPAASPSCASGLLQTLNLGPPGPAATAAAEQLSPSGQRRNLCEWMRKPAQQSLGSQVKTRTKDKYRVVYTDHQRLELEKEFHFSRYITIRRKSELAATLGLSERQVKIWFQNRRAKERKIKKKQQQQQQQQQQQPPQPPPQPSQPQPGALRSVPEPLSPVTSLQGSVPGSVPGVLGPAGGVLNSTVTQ
Method: (§1) Electromobility Shift Assay (EMSA). Protein-DNA binding reactions performed in the same buffer as the DNase I protection assay (4% glycerol, 10 mM Tris-HCl (pH 7.5) 50 mM NaCl, 2.5 mM MgCl₂ and 5 mM DTT) included […] of Poly(dI.dC)-Poly(dI.dC) (Amersham Pharmacia Biotech, Piscataway, N.J.) and 30 kcpm of probe. Reactions were initiated by the addition of nuclear extract and incubated for 30 min at room temp to produce protein complexes which were separated on a 6% non-denaturing, polyacrylamide (37.5:1) gel in 0.5× TBE running buffer. Gels were dried prior to visualization of radiolabelled complexes by autoradiography. In competition assays, unlabelled competitor was added to the reaction mixtures at concentrations ranging from 25-fold to 250-fold molar excess of the labeled probe prior to the addition of the nuclear extract. Supershift assays were performed by adding […] of murine Cdx2 antibody after an initial incubation period of 30 min; incubation was then continued for an additional 30 min. Transcribed and translated murine Cdx2 protein was generated in vitro using linearized pRc/CMV-Cdx2 expression vector as a template for the TNT-Quickcoupled Kit (Promega).
(§2) Cdx2 binds specifically to the FP1 probe. To determine whether FP1 is a binding site for Cdx2, labeled FP1 was incubated with in vitro transcribed and translated murine Cdx2. […]

[2] = target: T1, Cdx2; experiment: EMSA; no specific complex formed; settings: tags: pRc/CMV-Cdx2, TNT Quick-coupled (Promega); label: 32P 5'-end
Method: as §1, §2

B1: FP1 (dsDNA)
DNA 1: CAGCTAATCTCTCTGTTTATAGCTCTGACCTTTC
DNA 2: GAAAGGTCAGAGCTATAAACAGAGAGATTAGCTG
- binding result [1]: binds

B2: FP1-CCC (dsDNA)
DNA 1: CAGCTAATCTCTCTGCCCATAGCTCTGACCTTTC
DNA 2: GAAAGGTCAGAGCTATGGGCAGAGAGATTAGCTG
- binding result [2]: no binding
